Data on 1 substance can be found in patent publication US9127260B2.

For experiment [1], the target named is Natuphos (Natuphos 10000L, BASF), commercial phytase.
Experiment [2] has as its target T1, synthetic phytase Fus5#2 (mature) (synthetic fusion of Hafnia sp. LU11047 phytase and Yersinia mollaretii ATCC 43969 phytase fragments).
T1 sequence: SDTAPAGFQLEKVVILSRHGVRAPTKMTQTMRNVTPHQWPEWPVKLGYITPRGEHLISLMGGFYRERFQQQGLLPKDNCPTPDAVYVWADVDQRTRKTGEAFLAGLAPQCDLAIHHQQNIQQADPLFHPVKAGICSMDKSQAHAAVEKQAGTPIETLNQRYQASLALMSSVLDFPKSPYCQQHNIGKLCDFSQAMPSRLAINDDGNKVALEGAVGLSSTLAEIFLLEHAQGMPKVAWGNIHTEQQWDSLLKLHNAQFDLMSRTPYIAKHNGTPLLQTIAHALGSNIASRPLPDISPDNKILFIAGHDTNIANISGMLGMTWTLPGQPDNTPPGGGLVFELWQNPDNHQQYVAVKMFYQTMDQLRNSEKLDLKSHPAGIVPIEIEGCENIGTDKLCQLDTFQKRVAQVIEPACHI

Turning to “pepsin (Sigma P-7000, 445 U/mg) (from UniProt P00791) (enzyme)”, the Stability to pepsin (residual phytase activity after 30 min at 37 C with 10 mg/ml pepsin, pH 2, relative to a pH 5.5 reference) in experiment [1] came to 20%; in experiment [2], 1%.
